# Assay results reported in US20230125561A1 (PNEUMAGEN, published 2023).
# B1: Neumifil (HEX17: trimeric (hexavalent) form based on S. pneumoniae CBM40) (designed binder)
# chain: GAMVIEKEDVETNASNGQRVDLSSELDKLKKLENATVHMEFKPDPKAPAFYNLFSVSSATKKDEYFTMAVYNNTATLEGRGSDGKQFYNNYNDAPLKVKPGQWNSVTFTVEKPTAELPKGRARLYVNGGLSRTSLRSGNFIKDMPDVTHVQIGATKRANNTVWGSNLQIRNLTVYNRALTPEEVQKRSGGGSGVIEKEDVETNASNGQRVDLSSELDKLKKLENATVHMEFKPDPKAPAFYNLFSVSSATKKDEYFTMAVYNNTATLEGRGSDGKQFYNNYNDAPLKVKPGQWNSVTFTVEKPTAELPKGRARLYVNGGLSRTSLRSGNFIKDMPDVTHVQIGATKRANNTVWGSNLQIRNLTVYNRALTPEEVQKRSGGSLGVPDFESDWFDVSSNSLYTLSHGLQRSPRRVVVEFARSSSPSTWNIVMPSYFNDGGHKGSGAQVEVGSLNIKLGTGAAVWGTGYFGGIDNSATTRFATGYYRVRAWI
# notes: also called CBM2
# Key:
# [1] = target: T1, recombinant human ACE2 (Angiotensin-converting enzyme 2) (human, UniProt Q9BYF1 18-740); test: ELISA: ACE2 immobilised at 1 µg/mL, Neumifil titrated, detected with rabbit anti-Neumifil and HRP anti-rabbit IgG, 4PL fit
# T1 construct: Bought recombinant protein
# [2] = target: T2, SARS-CoV-2 Spike S1 protein, Wuhan (Wuhan-Hu-1, Dec 2019 isolate) (SARS-CoV-2, UniProt P0DTC2 16-685); test: ELISA: Spike S1 immobilised at 1 µg/mL, Neumifil titrated, detected with rabbit anti-Neumifil and HRP anti-rabbit IgG, 4PL fit
# T2 construct: domain: S1; also called original Spike protein
# T1 sequence (Q9BYF1 18-740 limits assumed): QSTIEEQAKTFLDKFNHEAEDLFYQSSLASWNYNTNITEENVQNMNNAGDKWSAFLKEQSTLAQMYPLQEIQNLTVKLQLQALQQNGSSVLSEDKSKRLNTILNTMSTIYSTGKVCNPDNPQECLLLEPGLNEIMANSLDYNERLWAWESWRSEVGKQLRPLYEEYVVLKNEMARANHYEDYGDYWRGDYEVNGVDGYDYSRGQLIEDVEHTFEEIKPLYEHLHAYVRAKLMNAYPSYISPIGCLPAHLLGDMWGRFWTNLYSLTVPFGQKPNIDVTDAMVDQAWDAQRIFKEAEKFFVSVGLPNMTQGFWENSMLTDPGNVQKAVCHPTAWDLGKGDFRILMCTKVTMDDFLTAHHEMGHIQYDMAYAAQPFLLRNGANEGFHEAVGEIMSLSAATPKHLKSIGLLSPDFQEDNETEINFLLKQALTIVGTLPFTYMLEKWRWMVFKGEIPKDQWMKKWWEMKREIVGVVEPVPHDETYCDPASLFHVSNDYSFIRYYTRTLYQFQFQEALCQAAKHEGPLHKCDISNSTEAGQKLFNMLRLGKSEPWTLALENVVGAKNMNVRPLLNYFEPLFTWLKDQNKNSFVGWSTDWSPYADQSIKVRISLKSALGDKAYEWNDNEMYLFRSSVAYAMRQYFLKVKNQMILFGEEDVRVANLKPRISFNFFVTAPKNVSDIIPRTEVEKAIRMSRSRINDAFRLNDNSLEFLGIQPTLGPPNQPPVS
binder,measurement,setting,value
B1,EC50,[1],0.235 µg/mL
same,EC50,[2],0.174 µg/mL
